In assay [1] the target is T1, human SIRPα v2 on CHOK1 cells (human, UniProt P78324 31-504).
T1 construct: whole, on cells; also called CHOK1-hSIRPα v2; cell surface human SIRPα v2
Nature of the assay: FACS, CHOK1 cells stably expressing human SIRPα v2. In general terms: Flow cytometry measures light scatter and fluorescence of single cells or particles in a stream.

Assay [2] addresses T2, Human SIRPα v2 (human).
T2 construct: also called human SIRPα v2 (antigen of the Biacore assay)
Description: SPR (Biacore), 1:1 binding model. The procedure: The humanized antibodies were characterized for binding affinity against human SIRPα v1, human SIRPα v2 using Surface Plasmon Resonance technology (Biacore system). The association and dissociation curves were fit with 1:1 binding model, and the Ka/Kd/KD values for each antibody were calculated.
Background: Surface plasmon resonance follows binding to a sensor surface in real time, without labels.

Assay [3] has as its target T3, human SIRPα v2 ECD recombinant protein (human).
T3 construct: extracellular domain; Coated on the ELISA plate
Nature of the assay: competitive ELISA, plate-coated human SIRPα v2 ECD; blocked ligand: mFc tagged human CD47 ECD. As for the experimental part: (§1) Competitive ELISA assay was used to determine whether the purified chimeric antibodies can block CD47 and SIRPα interaction. Briefly, antibody and mFc tagged human CD47 ECD recombinant protein were co-incubated with ELISA microplate coated human SIRPα v1 ECD or human SIRPα v2 ECD recombinant protein. The concentration of soluble ECD of CD47 is 25 nM, and the concentration of soluble ECD of SIRPα is 20 nM. After washing, HRP labeled anti-mouse Fc 2nd antibody (Sigma) was added and incubated at 37° C. for 1 hour. Then, 100 μl/well of TMB solution (Biotechnology) was added. After incubation for 15 minutes at room temperature, the reaction was stopped by the addition of 50 μl of 1N HCl. OD 450 nm was read. Blocking ratio was determined by blockade of human SIRPα ECD recombinant protein binding to ELISA microplate coated human CD47 ECD recombinant protein. All antibodies as tested can block interaction between human CD47 and different human SIRPα variants.
(§2) The humanized antibodies were tested for the ability to block CD47 and SIRPα interaction with competitive ELISA assay (refer to methods described above).
For orientation: ELISA stands for enzyme-linked immunosorbent assay.

Assay [4] deals with Full length human SIRPα v1 with beta-gal fragment (ED) at its C-terminal, in K562 cells (human, UniProt P78324 31-504). Nature of the assay: cell-based or functional assay.
Chain of Full length human SIRPα v1 with beta-gal fragment (ED) at its C-terminal, in K562 cells (P78324 31-504): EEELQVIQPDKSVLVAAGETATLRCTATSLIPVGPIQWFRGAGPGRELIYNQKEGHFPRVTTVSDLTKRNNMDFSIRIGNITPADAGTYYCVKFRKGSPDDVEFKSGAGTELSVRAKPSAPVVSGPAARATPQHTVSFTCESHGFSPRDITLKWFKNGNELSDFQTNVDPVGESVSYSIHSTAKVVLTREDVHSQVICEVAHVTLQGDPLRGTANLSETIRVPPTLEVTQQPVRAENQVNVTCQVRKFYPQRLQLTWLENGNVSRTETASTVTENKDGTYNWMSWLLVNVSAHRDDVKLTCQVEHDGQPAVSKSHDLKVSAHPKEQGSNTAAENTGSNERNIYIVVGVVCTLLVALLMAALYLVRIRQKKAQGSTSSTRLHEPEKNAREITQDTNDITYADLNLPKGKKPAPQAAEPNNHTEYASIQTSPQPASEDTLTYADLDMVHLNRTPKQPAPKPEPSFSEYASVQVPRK
Assay [5] concerns the target T4, human SIRPα v1 ECD recombinant protein (human, UniProt P78324 31-373).
T4 construct: extracellular domain; Coated on the ELISA plate
Nature of the assay: competitive ELISA, plate-coated human SIRPα v1 ECD; blocked ligand: mFc tagged human CD47 ECD. As for the experimental part:
as §1, §2

Assay [6] addresses T5, human SIRPα v1 on CHOK1 cells (human, UniProt P78324 31-504).
T5 construct: whole, on cells; also called CHOK1-hSIRPα v1; cell surface human SIRPα v1
Description: FACS, CHOK1 cells stably expressing human SIRPα v1.

In assay [7] the target is T6, human Claudin18.2 protein (Octet assay) (human, UniProt P56856-2 1-261, limits assumed).
T6 construct: UniProt P56856 isoform A2 corresponds to Claudin18.2; also called CLDN18.2
T6 sequence (looked up): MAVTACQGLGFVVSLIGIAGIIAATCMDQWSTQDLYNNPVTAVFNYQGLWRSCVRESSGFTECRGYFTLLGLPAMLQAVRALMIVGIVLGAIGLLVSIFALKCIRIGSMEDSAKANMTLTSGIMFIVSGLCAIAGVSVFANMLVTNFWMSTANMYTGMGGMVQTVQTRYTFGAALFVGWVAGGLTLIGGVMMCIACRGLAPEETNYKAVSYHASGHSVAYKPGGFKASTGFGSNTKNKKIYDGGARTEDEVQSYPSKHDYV
Description: Octet; antibody on sensor, Claudin18.2 protein in solution. The procedure:
The Anti-Claudin18.2/SIRPα bispecific protein were characterized for binding affinity against human Claudin18.2 or SIRPα using Octet assay (ForeBio) according to manufacturer's manual, separately. Briefly, the antibodies were coupled on sensors and then the sensors were dipped into Claudin18.2 or SIRPα protein gradients (start at 200 nM, with 2-fold dilution and totally 8 doses). Their binding responses were measured in real-time and results were fit globally.

Assay [8] concerns the target human PDL1 protein (Octet assay) (human, UniProt Q9NZQ7 19-238). Description: Octet; antibody on sensor, PDL1 protein in solution. The procedure: The Anti-PDL1/SIRPα bispecific protein were characterized for binding affinity against human PDL1 using Octet assay (ForeBio) according to manufacturer's manual, separately. Briefly, the antibodies were coupled on sensors and then the sensors were dipped into PDL1 protein gradients (start at 200 nM, with 2-fold dilution and totally 8 doses). Their binding responses were measured in real-time and results were fit globally.

Residue numbers refer to the chain shown, from its start. Names may count otherwise.

T4 sequence (P78324 31-373): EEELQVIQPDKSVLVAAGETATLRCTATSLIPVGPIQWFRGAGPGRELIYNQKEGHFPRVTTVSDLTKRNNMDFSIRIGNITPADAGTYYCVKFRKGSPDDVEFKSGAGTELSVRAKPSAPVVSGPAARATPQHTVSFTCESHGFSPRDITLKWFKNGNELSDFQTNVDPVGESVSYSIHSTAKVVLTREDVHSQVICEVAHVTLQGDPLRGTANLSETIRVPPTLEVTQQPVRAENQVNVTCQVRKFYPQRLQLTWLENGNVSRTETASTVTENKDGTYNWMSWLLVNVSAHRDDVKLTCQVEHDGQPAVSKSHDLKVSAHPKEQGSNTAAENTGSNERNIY
T1 sequence (P78324 other isoform, or with tags, fused parts or gaps limits assumed): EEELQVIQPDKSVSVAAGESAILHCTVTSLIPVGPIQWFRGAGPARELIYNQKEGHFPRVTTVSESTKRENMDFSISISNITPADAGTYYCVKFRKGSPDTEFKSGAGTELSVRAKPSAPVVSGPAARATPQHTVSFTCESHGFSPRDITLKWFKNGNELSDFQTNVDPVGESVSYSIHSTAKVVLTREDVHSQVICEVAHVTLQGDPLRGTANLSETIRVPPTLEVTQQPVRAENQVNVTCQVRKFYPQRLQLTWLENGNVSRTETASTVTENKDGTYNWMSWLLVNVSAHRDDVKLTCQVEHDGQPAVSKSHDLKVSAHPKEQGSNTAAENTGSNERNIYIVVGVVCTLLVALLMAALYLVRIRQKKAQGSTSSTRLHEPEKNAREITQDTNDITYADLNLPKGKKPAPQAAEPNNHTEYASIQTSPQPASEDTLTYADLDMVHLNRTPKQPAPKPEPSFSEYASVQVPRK
T5 sequence (P78324 31-504): as the sequence (P78324 31-504) above
Chain of human PDL1 protein (Octet assay) (Q9NZQ7 19-238 limits assumed): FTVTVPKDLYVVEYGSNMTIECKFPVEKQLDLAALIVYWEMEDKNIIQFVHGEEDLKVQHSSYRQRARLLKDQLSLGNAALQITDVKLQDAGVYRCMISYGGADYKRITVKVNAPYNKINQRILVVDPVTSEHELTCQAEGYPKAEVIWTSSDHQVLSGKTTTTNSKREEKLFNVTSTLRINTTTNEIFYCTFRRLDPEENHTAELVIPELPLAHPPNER

B1: Humanized anti-SIRPα antibody hu025.021 (antibody, V domains shown)
VH: EVQLVQSGAEVKKPGATVKISCKVSGFNIKDYYMHWVQQAPGKGLEWIGRIDPEDAETKYAPKFQGRVTITADTSTNTAYMELSSLRSEDTAVYYCDRGLAYWGQGTLVTVSS
VL: EIVLTQSPATLSLSPGERATLSCSASSSVSSSYLYWYQQKPGQAPKLWIYSTSNLASGIPARFSGSGSGTDYTLTISSLEPEDFAVYYCHQWSSYPYTFGQGTKLEIK
notes: Humanized from C25
A word on the EC50: it is the midpoint of the concentration-response curve. Lower therefore signals an effect from little substance. The term Kd denotes the concentration at which binding is half-saturated. A higher Kd goes with weaker binding. Usually koff stands for the first-order rate constant of dissociation. The kon is the rate constant with which the complex forms. High values mean fast association, low ones slow association. As usually defined, the IC50 is the midpoint of a concentration-inhibition curve. B1: in assay [1], a half-maximal response (EC50) required 0.87 nM and the “TOP MFI” value was 46400 MFI. In addition, in assay [2], binding was characterised by a dissociation constant (Kd) of 3.39 nM, the off-rate constant (koff) was determined as 0.0056 s⁻¹ and the kon was found to be 1.65e+06 M⁻¹ s⁻¹. Besides, in assay [3], the 50% inhibitory concentration (IC50) was 1.96 nM and the TOP blocking stood at 98.3%. For the same molecule, in assay [4], the “IC50 (SHP-1 recruitment blocking)” value was 0.1 nM and the “TOP blocking (SHP-1 recruitment)” value amounted to 86.3%. In assay [5], the IC50 amounted to 2.07 nM and the TOP blocking was found to be 97.7%. Also, in assay [6], the EC50 was determined as 1.08 nM and the “TOP MFI” value turned out to be 56400 MFI.

B2: Humanized anti-SIRPα antibody hu025.033 (antibody, V domains shown)
VH: B1 VH with N77D
VL: B1 VL
notes: Humanized from C25
In the case of B2, in assay [1], the response was half-maximal at 0.62 nM (EC50) and the “TOP MFI” value worked out at 39800 MFI. Moreover, in assay [3], the IC50 came to 1.88 nM and the TOP blocking came to 98.3%. Also, in assay [4], the “IC50 (SHP-1 recruitment blocking)” value amounted to 0.19 nM and the “TOP blocking (SHP-1 recruitment)” value worked out at 84.5%. In addition, in assay [5], the IC50 was determined as 2.22 nM and the TOP blocking came to 97.2%. Further, in assay [6], the response was half-maximal at 0.99 nM (EC50) and the “TOP MFI” value came to 53800 MFI.

B3: Anti-Claudin18.2/SIRPα bispecific antibody ES028-009 (bispecific antibody)
light (part 1 of 2): QIVLTQSPAIMSASPGEKVTLTCSASSSVSSSYLYWYQQKPGSSPKLWIYSTSNLASGVPARFSGSGSGTSYSLTISSMEAEDAASYFCHQWSSYPYTFGGGTKLEIK
light (part 2 of 2): GGGGSGGGGSGGGGSDIVMTQSPDSLAVSLGERATINCKSSQSLLNAGNQKNYLTWYQQKPGQPPKLLIYWSSTRESGVPDRFSGSGSGTDFTLTISSLQAEDVAVYHCQNNYYYPLTFGGGTKLEIKGGGGSGGGGSGGGGSGGGGSQVQLVQSGAEVKKPGASVKVSCKASGYTFTNWVHWVRQAPGQGLEWMGEINPTNARSNYNEKFKKRVTMTRDTSTSTVYMELSSLRSEDTAVYYCARIYYGNSFAHWGQGTLVTVSS
heavy: EVQLQQSGAELVKPGASVKLSCTASGFNIKDYYMHWVKQRTEQGLEWIGRIDPEDGETKYAPKFQGKATITADTSSNTAYLQLSSLTSEDTAVYYCDRGLAYWGQGTLVTVSA
notes: not shown: CL; CH1-Fc
For B3, in assay [7], the dissociation constant (Kd) is under 1 pM, the off-rate (koff) is under 1e-07 s⁻¹ and the association rate constant (kon) stood at 21100 M⁻¹ s⁻¹.

B4: Anti-PDL1/SIRPα bispecific antibody ES019-025 (bispecific antibody)
light: B3 light (part 1 of 2)
heavy (part 1 of 2): EVQVVESGGGLVQSGGSLKLSCAGSGFTESAGFMVWHRQVPGKERELVALIATPSGSTNYADSVKGRFTISRDNGKNTVYLQMNSLKPEDTAVYYCNIRGYWGQGTLVTVSS
heavy (part 2 of 2): B3 heavy
notes: not shown: CL; linker; CH1-Fc
In assay [8], B4 registered a Kd of 3.81 nM, a koff of 0.00604 s⁻¹ and a kon of 1.58e+06 M⁻¹ s⁻¹.

B5: Anti-PDL1/SIRPα bispecific antibody ES019-029 (bispecific antibody)
chain 1: B4 heavy (part 1 of 2)
chain 2: B3 heavy
chain 3: B3 light (part 1 of 2)
In assay [8], B5 had a dissociation constant Kd of 1.23 nM, a koff of 0.00136 s⁻¹ and a kon of 1.11e+06 M⁻¹ s⁻¹.

B6: Anti-PDL1/SIRPα bispecific antibody ES019-079 (bispecific antibody)
light: B3 light (part 1 of 2)
heavy (part 1 of 2): EVQLVESGGGLVQAGGSLRLSCAASGFTFSSHAMSWVRQAPGKGLEWVSDIDTSGTTTDYADSVKGRFTISRDNAKNTLYLQMNSLKPEDTAVYYCAKGPREATDIRSWGQGTQVTVSS
heavy (part 2 of 2): GGGGSGGGGSGGGGSEVQLQQSGAELVKPGASVKLSCTASGFNIKDYYMHWVKQRTEQGLEWIGRIDPEDGETKYAPKFQGKATITADTSSNTAYLQLSSLTSEDTAVYYCDRGLAYWGQGTLVTVSA
notes: not shown: CL; linker and Fc; CH1
Take B6: in assay [8], the affinity, expressed as Kd, was 0.0485 nM; the koff came to 2.85e-05 s⁻¹; the association rate constant (kon) was 588000 M⁻¹ s⁻¹.

B7: Anti-Claudin18.2 antibody hu26.H1L2 (S92A) (antibody, V domains shown)
VH: EVQLLESGGGLVQPGGSLRLSCAASGFTLSSYALSWVRQAPGKGLEWVSYISNLGGSTFYPDTVKGRFTISRDNSKNTLYLQMNSLRAEDTAVYYCAKHLYNYDAFASWGQGTLVTVSS
VL: DIQLTQSPSFLSASVGDRVTITCRASSSVNYIHWYQQKPGKAPKALIYATSNLASGVPSRFSGSGSGTEYTLTISSLQPEDFATYYCQQWNANPLTFGQGTKLEIK
notes: Humanized monoclonal antibody; also called Anti-Claudin18.2, hu26.H1L2 (S92A)
B7: in assay [7], the Kd was found to be 1810 pM, the koff came to 6.25e-05 s⁻¹ and the kon is 34500 M⁻¹ s⁻¹.

B8: Anti-Claudin18.2 antibody hu28.H1L2 (antibody, V domains shown)
VH: QVQLVQSGAEVKKPGASVKVSCKASGYTFTNWVHWVRQAPGQGLEWMGEINPTNARSNYNEKFKKRVTMTRDTSTSTVYMELSSLRSEDTAVYYCARIYYGNSFAHWGQGTLVTVSS
VL: DIVMTQSPDSLAVSLGERATINCKSSQSLLNAGNQKNYLTWYQQKPGQPPKLLIYWSSTRESGVPDRFSGSGSGTDFTLTISSLQAEDVAVYHCQNNYYYPLTFGGGTKLEIK
notes: Humanized monoclonal antibody; also called Anti-Claudin18.2, hu28.H1L2
In assay [7], B8 had a dissociation constant (Kd) of under 1 pM, a koff of under 1e-07 s⁻¹ and an association rate constant (kon) of 95800 M⁻¹ s⁻¹.

B9: Anti-Claudin18.2/SIRPα bispecific antibody ES028-005 (bispecific antibody)
light: B8 VL
heavy (part 1 of 2): B8 VH
heavy (part 2 of 2): GGGGSGGGGSGGGGSQIVLTQSPAIMSASPGEKVTLTCSASSSVSSSYLYWYQQKPGSSPKLWIYSTSNLASGVPARFSGSGSGTSYSLTISSMEAEDAASYFCHQWSSYPYTFGGGTKLEIKGGGGSGGGGSGGGGSGGGGSEVQLQQSGAELVKPGASVKLSCTASGFNIKDYYMHWVKQRTEQGLEWIGRIDPEDGETKYAPKFQGKATITADTSSNTAYLQLSSLTSEDTAVYYCDRGLAYWGQGTLVTVSA
notes: not shown: CL; CH1-Fc
As to B9, in assay [7], the dissociation constant Kd was under 1 pM, the koff was under 1e-07 s⁻¹ and the kon was 106000 M⁻¹ s⁻¹.

B10: Anti-Claudin18.2/SIRPα bispecific antibody ES028-001 (bispecific antibody)
light (part 1 of 2): B8 VL
light (part 2 of 2): B9 heavy (part 2 of 2)
heavy: B8 VH
notes: not shown: CL; CH1-Fc
In assay [7], B10 yielded a Kd of under 1 pM, a dissociation rate constant (koff) of under 1e-07 s⁻¹ and an association rate constant (kon) of 105000 M⁻¹ s⁻¹.

B11: Anti-PDL1 antibody C570 (antibody, V domains shown)
VH: B6 heavy (part 1 of 2)
notes: Heavy chain antibody; also called Anti-PDL1, C570
In the case of B11, in assay [8], the Kd turned out to be 0.374 nM, the off-rate constant (koff) was determined as 0.000306 s⁻¹ and the on-rate (kon) amounted to 819000 M⁻¹ s⁻¹.

B12: Anti-PDL1 antibody 570h3 (antibody, V domains shown)
VH: B6 heavy (part 1 of 2) with A14P, A75S, K87R, P88A, Q114T
notes: Humanized heavy chain antibody; also called Anti-PDL1, 570h3
In the case of B12, in assay [8], the equilibrium dissociation constant (Kd) stood at 0.198 nM, the off-rate constant (koff) stood at 9.29e-05 s⁻¹ and the kon was determined as 470000 M⁻¹ s⁻¹.

(Values after US20240336686A1 (ELPISCIENCE SUZHOU BIOPHARMA, published 2024).)
